T1: GST-LSH10 (Arabidopsis, UniProt Q9S7R3 1-177)
T1 sequence: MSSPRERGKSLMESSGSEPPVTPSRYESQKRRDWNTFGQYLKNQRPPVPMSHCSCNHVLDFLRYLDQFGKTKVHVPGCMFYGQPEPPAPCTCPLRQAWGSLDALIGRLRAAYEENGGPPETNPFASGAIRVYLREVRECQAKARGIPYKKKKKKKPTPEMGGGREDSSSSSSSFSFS

B1: probe c (WUS) (dsDNA)
DNA 1: TTTTAGAATTTTTGTTTTGTTTTCTGTGTGTATG
DNA 2: CATACACACAGAAAACAAAACAAAAATTCTAAAA
B2: probe e (WUS) (dsDNA)
DNA 1: ATTTACCGTTAACTTTGTGAACAAAAGTCGAATCAAACACAC
DNA 2: GTGTGTTTGATTCGACTTTTGTTCACAAAGTTAACGGTAAAT
B3: probe g (ABI5) (dsDNA)
DNA 1: ACAAGAAGCGGATTCTCTCAGTTTTCCGGCGGCGGAGGAACA
DNA 2: TGTTCCTCCGCCGCCGGAAAACTGAGAGAATCCGCTTCTTGT
B4: probe d (WUS) (dsDNA)
DNA 1: TATATATATATAATCTTCTCTCTCACACAAAACCTAAAA
DNA 2: TTTTAGGTTTTGTGTGAGAGAGAAGATTATATATATATA
B5: probe h (ARL) (dsDNA)
DNA 1: TCAGAGAAAGTGTCTAGGGGAGAAGAACCACTGTGATTG
DNA 2: CAATCACAGTGGTTCTTCTCCCCTAGACACTTTCTCTGA
B6: probe a (OSR2) (dsDNA)
DNA 1: TAATATAAATTGCGTTTTGTTTTCCAGATATCAA
DNA 2: TTGATATCTGGAAAACAAAACGCAATTTATATTA
B7: probe f (ABI5) (dsDNA)
DNA 1: GCTTTTAAACTATGTGAAGGAGGAGAACCTCCATAACAA
DNA 2: TTGTTATGGAGGTTCTCCTCCTTCACATAGTTTAAAAGC
B8: probe b (OSR2) (dsDNA)
DNA 1: CTGTAACGTCTTTCTCTTCACACACATAAAAAAG
DNA 2: CTTTTTTATGTGTGTGAGAGAGAAAGACGTTACAG
B9: LSH10-GFP (natural protein)
chain: T1 sequence

These binders were tested against T1, GST-LSH10 (assay: EMSA; poly dI.dC; reduced by 300x unlabeled probe; 100 mM Tris, 500 mM KCl, 10 mM DTT, pH 7.5 (as printed binding buffer), 1 ug dI.dC, 10 ng probe, 1 ug protein, room temperature 20 min, 6% native PAGE). Conditions: protein: recombinant; tags: N-terminal GST (pGEX-5X-1); label: biotin (labeled probe).

Binder | binding result
B1 | binds
B2 | binds
B3 | binds
B4 | binds
B5 | binds
B6 | binds
B7 | binds

Same assay, conditions: protein: recombinant; tags: N-terminal GST (pGEX-5X-1); label: biotin (labeled probe); internal mismatch/bulge as printed

Binder | binding result
B8 | binds

What follows are binders tested against OTLD1-RFP (Arabidopsis) (assay: FRET or BRET; acceptor photobleaching FRET (AB-FRET): GFP donor, RFP acceptor, transiently co-expressed in N. benthamiana leaves; %AB-FRET = percent increase in GFP emission after RFP photobleaching, cell nucleus, n = 13 cells). Conditions: not given.
Sequence of OTLD1-RFP (Arabidopsis) (F4IFS7 whole entry): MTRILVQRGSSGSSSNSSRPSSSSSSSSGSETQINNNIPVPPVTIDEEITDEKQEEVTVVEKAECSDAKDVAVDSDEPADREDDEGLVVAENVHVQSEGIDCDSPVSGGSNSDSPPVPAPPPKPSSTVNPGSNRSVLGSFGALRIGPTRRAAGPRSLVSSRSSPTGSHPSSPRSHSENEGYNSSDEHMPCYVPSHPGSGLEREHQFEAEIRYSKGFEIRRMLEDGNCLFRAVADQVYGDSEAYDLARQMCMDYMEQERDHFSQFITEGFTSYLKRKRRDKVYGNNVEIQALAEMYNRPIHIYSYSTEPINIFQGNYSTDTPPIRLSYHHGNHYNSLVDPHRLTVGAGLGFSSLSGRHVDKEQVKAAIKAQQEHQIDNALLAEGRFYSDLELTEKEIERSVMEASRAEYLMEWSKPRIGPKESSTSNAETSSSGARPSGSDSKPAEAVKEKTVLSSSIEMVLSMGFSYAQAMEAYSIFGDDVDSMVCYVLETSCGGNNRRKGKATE

%AB-FRET (increase in the donor fluorescence) [%] | Binder
13 | B9
